Sequences and labels used below:
T1: mouse RANK-L (mouse, UniProt O35235 158-316, limits assumed)
T1 construct: also called murine RANK-L
T1 sequence (looked up): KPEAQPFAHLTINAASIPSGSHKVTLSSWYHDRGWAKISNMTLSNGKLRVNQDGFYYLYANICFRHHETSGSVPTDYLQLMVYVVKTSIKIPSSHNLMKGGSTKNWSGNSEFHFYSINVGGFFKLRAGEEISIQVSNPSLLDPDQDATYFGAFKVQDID

T2: human RANK-L (human, UniProt O14788 140-317, limits assumed)
T2 construct: Soluble protein, used coated, biotinylated or labelled in ELISA, AlphaScreen, FMAT and Biacore; also called hRANK-L; soluble human RANK-L
T2 sequence (looked up): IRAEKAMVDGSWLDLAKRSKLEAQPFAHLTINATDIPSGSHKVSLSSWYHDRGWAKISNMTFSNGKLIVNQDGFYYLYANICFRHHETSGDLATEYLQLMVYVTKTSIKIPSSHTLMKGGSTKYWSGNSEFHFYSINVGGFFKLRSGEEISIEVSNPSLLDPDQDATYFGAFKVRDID

B1: RANKL7 (VHH)
VHH: EVQLVESEGGPVQSGGSLRLSCAASGRTFSVSTIAWFRQAPGEGREFVAAIYPSGRNAYVADSVKGRFTISRDNAKKTVYLQMNSLKPEDTAAYYCAAHQPSGSYYSAEAYAYWGQGTQVTVSS
notes: not shown: c-myc and His6 tags
B2: RANKL8 (VHH)
VHH: EVQLVESGGGSVQPGGSLRLSCAASGGTFSRYAMGWFRQAPGKEREFVSAISVGGTYQYYVDSVKGRFTISRDNAESTVYLQMNSLKPEDTAVYYCAGDASPYGYLREYTATRFDYWGQGTQVTVSS
notes: as for B1
B3: RANKL11 (VHH)
VHH: EVQLVESGGGLVQAGGSLRLSCAASGRTFSSKTMGWFRQPPGNEREFVAAITPTSRTTYYADSVKGRFTISRDNAKNTVSLQMNSLKFEDTAAYYCVAVRRYGSPPHDGSSYEYWGQGTQVTVSS
notes: as for B1
B4: RANKL12 (VHH)
VHH: EVQLVESGGGWMQAGGSLRLSCAASGRTFTMAWFRQAPGKEREFVAAITGSGRSTYYTDSVKGRFTISRDNAKNTAYLQMKSLKPEDTAVYYCAGLRGLGLEYDSAKSYSYWGQGTQVTVSS
notes: as for B1
B5: RANKL182biv (VHH)
chain: EVQLVESGGGLVQAGGSLRLSCAASGRTFSRSAMGWFRQAPGKEREFVGFITGSGGTTYYGESVKGRFTISRDNAQNPVYLQMNSLKPEDTAVYYCGVYRRTYISSTYSESSEYDYWGQGTQVTVSSGGGGSGGGGSGGGGSGGGGSEVQLVESGGGLVQAGGSLRLSCAASGRTFSRSAMGWFRQAPGKEREFVGFITGSGGTTYYGESVKGRFTISRDNAQNPVYLQMNSLKPEDTAVYYCGVYRRTYISSTYSESSEYDYWGQGTQVTVSS
notes: Bivalent Nanobody; also called RANKL18-20GS-RANKL18
B6: RANKL131 (VHH)
chain: EVQLVESGGGLVQAGGSLRLSCAASGRTFRSYPMGWFRQAPGKEREFVASITGSGGSTYYADSVKGRFTISRDNAKNTVYLQMNSLRPEDTAVYSCAAYIRPDTYLSRDYRKYDYWGQGTQVTVSSGGGGSGGGSEVQLVESGGGLVQAGGSLRLSCAASGRTFRSYPMGWFRQAPGKEREFVASITGSGGSTYYADSVKGRFTISRDNAKNTVYLQMNSLRPEDTAVYSCAAYIRPDTYLSRDYRKYDYWGQGTQVTVSS
notes: Bivalent Nanobody; also called RANKL13-9GS-RANKL13
B7: RANKL133 (VHH)
chain: EVQLVESGGGLVQAGGSLRLSCAASGRTFRSYPMGWFRQAPGKEREFVASITGSGGSTYYADSVKGRFTISRDNAKNTVYLQMNSLRPEDTAVYSCAAYIRPDTYLSRDYRKYDYWGQGTQVTVSSGGGGSGGGGSGGGGSGGGGSGGGGSGGGGSEVQLVESGGGLVQAGGSLRLSCAASGRTFRSYPMGWFRQAPGKEREFVASITGSGGSTYYADSVKGRFTISRDNAKNTVYLQMNSLRPEDTAVYSCAAYIRPDTYLSRDYRKYDYWGQGTQVTVS
notes: Bivalent Nanobody; also called RANKL13-30GS-RANKL13
B8: RANKL183biv (VHH)
chain: EVQLVESGGGLVQAGGSLRLSCAASGRTFSRSAMGWFRQAPGKEREFVGFITGSGGTTYYGESVKGRFTISRDNAQNPVYLQMNSLKPEDTAVYYCGVYRRTYISSTYSESSEYDYWGQGTQVTVSSGGGGSGGGGSGGGGSGGGGSGGGGSGGGGSEVQLVESGGGLVQAGGSLRLSCAASGRTFSRSAMGWFRQAPGKEREFVGFITGSGGTTYYGESVKGRFTISRDNAQNPVYLQMNSLKPEDTAVYYCGVYRRTYISSTYSESSEYDYWGQGTQVTVSS
notes: Bivalent Nanobody; also called RANKL18-30GS-RANKL18
B9: RANKL181biv (VHH)
chain: EVQLVESGGGLVQAGGSLRLSCAASGRTFSRSAMGWFRQAPGKEREFVGFITGSGGTTYYGESVKGRFTISRDNAQNPVYLQMNSLKPEDTAVYYCGVYRRTYISSTYSESSEYDYWGQGTQVTVSSGGGGSGGGSEVQLVESGGGLVQAGGSLRLSCAASGRTFSRSAMGWFRQAPGKEREFVGFITGSGGTTYYGESVKGRFTISRDNAQNPVYLQMNSLKPEDTAVYYCGVYRRTYISSTYSESSEYDYWGQGTQVTVSS
notes: Bivalent Nanobody; also called RANKL18-9GS-RANKL18
B10: RANKL18hum1 (VHH, name in Kabat numbering)
VHH: EVQLVESGGGLVQPGGSLRLSCAASGFTFSRSAMGWFRQAPGKGREFVGFITGSGGTTYYGESVKGRFTISRDNAQNPVYLQMNSLRPEDTAVYYCGVYRRTYISSTYSESSEYDYWGQGTLVTVSS
B11: RANKL18hum7 (VHH)
VHH: B10 VHH with F27R, G61A, E62D, V79L, G97A
B12: RANKL18hum2 (VHH, name in Kabat numbering)
VHH: B10 VHH with F27R, G49S
B13: RANKL18hum5 (VHH)
VHH: B10 VHH with F27R, G97A
B14: RANKL13basic (VHH)
VHH: EVQLVESGGGLVQPGGSLRLSCAASGRTFRSYPMGWFRQAPGKGREFVASITGSGGSTYYADSVKGRFTISRDNAKNTLYLQMNSLRPEDTAVYSCAAYIRPDTYLSRDYRKYDYWGQGTLVTVSS
notes: Humanized variant of RANKL13; also called RANKL13humbasic
B15: RANKL13hum1 (VHH)
VHH: B14 VHH with R27F
B16: RANKL13hum4 (VHH, name in Kabat numbering)
VHH: B14 VHH with S95Y
B17: RANKL13hum2 (VHH, name in Kabat numbering)
VHH: B14 VHH with R30S
B18: RANKL13hum3 (VHH, name in Kabat numbering)
VHH: B14 VHH with A49S
notes: also called RANL13hum3

Numbering of substitutions follows the chain as printed.

The first test concerns the target T1, mouse RANK-L. Briefly: ELISA, set-up as for human RANK-L. As to the method: (§1) Therefore 2 μg/ml neutravidin was coated overnight at 4° C. The plates were washed 5 times with 300 μl PBS and then blocked with […] 1% casein/PBS for 2 hours at room temperature. […] After extensive washing with PBS, varying concentrations of Nanobodies starting from 500 nM to 160 pM diluted in 1% casein/PBS were added to the wells and the plates were incubated for 1 hour at room temperature. Bound Nanobodies were detected by subsequent incubations of a primary mouse anti-myc antibody and a secondary anti mouse-HRP conjugate (DAKO, Glostrup, Denmark) and using TMB-H2O2 (Pierce, Rockford, Ill., USA) substrate cocktail. The reaction was stopped with H₂SO₄ and the OD was read at 450 nm.
For the molecule B1, the binding result is listed as “no binding (tested: 500 nM to 160 pM)”.
Turning to B2, the binding result is recorded as “no binding (tested: 500 nM to 160 pM)”.
In the case of B3, the binding result is reported as “no binding (tested: 500 nM to 160 pM)”.
B4: the binding result is given as “no binding (tested: 500 nM to 160 pM)”.

In a further test the target is T2, human RANK-L. Briefly: AlphaScreen, biotin-hRANK-L / RANK-huFc beads. For orientation: Alpha assays give light when donor and acceptor beads are brought close together.
Usually IC50 stands for the point on the concentration scale where inhibition reaches its midpoint. The low end stands for higher potency, the high end for lower potency. B5 showed an IC50 of 0.089 nM.
Regarding B6, half-maximal inhibition (IC50) required 0.019 nM. This IC50 is about 4.7-fold lower than that of the molecule before.
Still for that read-out and setting: for B7 the value was 0.026 nM; for B8, 0.049 nM; for B9, 0.113 nM.

A further test has as its target T2, human RANK-L. The test is described as follows: SPR Biacore 3000, hRANK-L on CM5, 100 nM Nanobody. How it is done: (§2) Binding kinetics of the humanized versions of Nanobodu RANL13 were also analysed by Surface Plasmon Resonance (Biacore 3000). […] Nanobody binding was assessed at one concentration (100 nM). Each Nanobody was injected for 4 minutes at a flow rate of 45 μl/min to allow binding to chip-bound antigen. Next, binding buffer without Nanobody was sent over the chip at the same flow rate to allow spontaneous dissociation of bound Nanobody.
By koff is commonly meant the rate constant with which the complex falls apart. A low value points to a long-lived complex. Consider B10, for which the off-rate constant (koff) was found to be 0.000236 s⁻¹.
On to B11, for which the koff came to 0.00027 s⁻¹.
Molecule B12 displayed a dissociation rate constant (koff) of 0.000173 s⁻¹.
In turn, B13 returned a koff of 9.94e-05 s⁻¹.
Consider B14, for which the koff amounted to 0.000189 s⁻¹. This koff is about 1.9-fold higher than that of the molecule before.
Regarding B15, the koff amounted to 0.000145 s⁻¹.
Still for that read-out and setting: the value for B16 was 0.000204 s⁻¹; that for B17 was 0.000232 s⁻¹; that for B18 was 0.000174 s⁻¹.

In a further test the target is T2, human RANK-L. The test is described as follows: AlphaScreen, biotin-hRANK-L / RANK-huFc beads. This is another data set of the same source.
Take B10: it took 3.15 nM to reach half-maximal inhibition (IC50).
On the same count and under the same terms, for B11 the value was 0.572 nM; for B12, 3.19 nM; for B13, 0.253 nM.
The molecule B14 registered a concentration for half-maximal inhibition (IC50) of 0.159 nM.
The same measure, in the same setting: the value for B15 was 0.123 nM.
Turning to B16, the 50% inhibitory concentration (IC50) stood at 0.223 nM.
B17: it took 0.191 nM to reach half-maximal inhibition (IC50).
Consider B18, for which half-maximal inhibition (IC50) was put at 0.196 nM.

The target of a further test is T2, human RANK-L. Briefly: FMAT, ALEXA647-hRANK-L / RANK on HEK293T cells.
Regarding B5, the IC50 stood at 0.076 nM.
Turning to B6, the IC50 is 0.023 nM.
Consider B8, for which the concentration for half-maximal inhibition (IC50) came out at 0.052 nM.
On to B9, for which the IC50 was 0.134 nM.

A further test addresses T2, human RANK-L. Briefly: SPR Biacore 3000, hRANK-L on CM5, 100 nM Nanobody; only indicative (one concentration). How it is done: as §2
(In SPR one partner is held on a chip, and binding of the other changes the refractive index at the surface.)
What is called Kd is the concentration at which binding is half-saturated. As a reminder, the kon is a measure of how fast the partners come together. Lower therefore signals slower complex formation. In turn, B10 yielded a Kd of 1.56 nM and a kon of 151000 M⁻¹ s⁻¹.
The molecule B11 came in with a dissociation constant (Kd) of 1.5 nM.
B12 showed a Kd of 2.73 nM and an on-rate constant (kon) of 63400 M⁻¹ s⁻¹.
For B13, in that order: 0.232 nM and 429000 M⁻¹ s⁻¹.
For B14, in that order: 0.214 nM and 885000 M⁻¹ s⁻¹.
B15 came in with a Kd of 0.106 nM and a kon of 1.37e+06 M⁻¹ s⁻¹.
For B16, in that order: 0.538 nM and 379000 M⁻¹ s⁻¹.
Consider B17, for which binding was characterised by a dissociation constant (Kd) of 0.88 nM and the kon is 264000 M⁻¹ s⁻¹.
For B18, in that order: 0.264 nM and 659000 M⁻¹ s⁻¹.

The next test deals with T2, human RANK-L. Briefly: AlphaScreen, biotin-hRANK-L / RANK-huFc beads. This is another data set of the same source. As to the method: To this mixture, the RANK acceptor beads and the streptavidin donor beads were added and further incubated for 1 hour at room temperature. Fluorescence was measured by reading plates on the EnVision Multilabel Plate Reader (Perkin Elmer) using an excitation wavelength of 680 nm and an emission wavelength of 520 nm.
For B1, half-maximal inhibition (IC50) was put at 0.459 nM. This lies in the sub-nanomolar range.
The same measure, in the same setting: for B2 the value was 0.755 nM; for B3, 1.17 nM; for B4, 0.627 nM.

Another test has as its target T2, human RANK-L. The test is described as follows: ELISA (ED50), biotin-hRANK-L on neutravidin. As to the method:
as §1
On the technique in general: In an ELISA, binding on a coated surface is turned into a signal by an enzyme label.
As a reminder, the EC50 is the concentration at which the effect is half-maximal. Lower therefore signals greater potency. On to B1, for which the EC50 was 0.376 nM.
B2 showed an EC50 of 0.652 nM.
In the case of B3, the EC50 was determined as 0.517 nM.
For B4, a half-maximal effect (EC50) was put at 0.399 nM.

For the origin of these results see patent US20110002929A1 (Ablynx, published 2011).
